Measured values as given in publication PMC10126545.

Tests used:
[1] = target: COBRA P1 HA wild type, CHO expressed, for binding assays; experiment: BLI; Octet RED384; HA loaded on anti-Penta-His biosensors (10 μg/mL), Fab 1F8 15 nM to 0.556 nM in solution; PBS, 1% BSA, 0.05% Tween 20; 30 °C; 1:1 model with mass transport limitation; mean of two independent experiments
[2] = target: COBRA P1 HA N127D mutant, CHO expressed, for binding assays; experiment: as above

B1: Fab 1F8 (recombinant Fab of the P1-elicited mouse monoclonal antibody 1F8) (Fab, V domains shown)
VH: QVQLQQSGAELMKPGASVKISCKATGYTFSSYWIEWVKQRPGHGLEWIGEILPGSGRTNYDERFKGKATFTADTSSNTAYMQLSSLTSEDSAVYYCARPRIYGMDYWGQGTSVTVSS
VL: DIVLTQSPASLAVSLGQRATISCKASQSVDFDGDTYMSWYQQKPGQPPKLLIYAASKLESGIPARFSGSGSGTDFTLNIHPVEEEDAATYFCQQSNEDPWTFGGGTKLEIK
B1 showed a Kd [1] of 2.95 nM and a Kd [2] of 0.86 nM.
